The target in series [1] is T1, Atl1 (MBP fusion cleaved with Factor Xa) (Schizosaccharomyces pombe, UniProt Q9UTN9 1-108).
T1 sequence: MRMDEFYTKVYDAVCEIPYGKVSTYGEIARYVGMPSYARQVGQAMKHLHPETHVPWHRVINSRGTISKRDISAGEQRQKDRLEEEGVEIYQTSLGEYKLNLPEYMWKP
As to the kind of experiment: EMSA. In general terms: A gel shift assay detects complexes by their altered migration in electrophoresis.

Series [2] has as its target Maltose-binding protein (MBP) (UniProt P0AEX9 27-396). Kind of series: EMSA.

B1: O6-PrG 23-mer duplex (dsDNA)
DNA 1: GAACTGCAGCTCCGTGCTGGCCC
DNA 2: GGGCCAGCACGGAGCTGCAGTTC
modifications: O6-n-propylguanine at G6 of strand 1
With B1, in series [1], the binding result is listed as “binds”.

B2: O6-BuG 23-mer duplex (dsDNA)
DNA 1: GAACTGCAGCTCCGTGCTGGCCC
DNA 2: GGGCCAGCACGGAGCTGCAGTTC
modifications: O6-n-butylguanine at G6 of strand 1
For B2, the binding result in series [1] is given as “binds”.

B3: O6-EtG 23-mer duplex (dsDNA)
DNA 1: GAACTGCAGCTCCGTGCTGGCCC
DNA 2: GGGCCAGCACGGAGCTGCAGTTC
modifications: O6-ethylguanine at G6 of strand 1
For B3, in series [1], the binding result is “binds”.

B4: O6-PobG 23-mer duplex (dsDNA)
DNA 1: GAACTGCAGCTCCGTGCTGGCCC
DNA 2: GGGCCAGCACGGAGCTGCAGTTC
modifications: O6-pyridyloxobutylguanine at G6 of strand 1
Turning to B4, in series [1], the binding result is recorded as “binds”.

B5: O6-MeG 23-mer duplex (dsDNA)
DNA 1: GAACTGCAGCTCCGTGCTGGCCC
DNA 2: GGGCCAGCACGGAGCTGCAGTTC
modifications: O6-methylguanine at G6 of strand 1
For B5, the binding result in series [1] is “binds”; in series [2], “no binding”.

B6: G control 23-mer duplex (dsDNA)
DNA 1: GAACTGCAGCTCCGTGCTGGCCC
DNA 2: GGGCCAGCACGGAGCTGCAGTTC
In the case of B6, in series [1], the binding result is “no binding”.

B7: O6-BTG 23-mer duplex (dsDNA)
DNA 1: GAACTGCAGCTCCGTGCTGGCCC
DNA 2: GGGCCAGCACGGAGCTGCAGTTC
modifications: O6-(4-bromothenyl)guanine at G6 of strand 1
Consider B7, for which, in series [1], the binding result was “binds”.

B8: O6-BnG 23-mer duplex (dsDNA)
DNA 1: GAACTGCAGCTCCGTGCTGGCCC
DNA 2: GGGCCAGCACGGAGCTGCAGTTC
modifications: O6-benzylguanine at G6 of strand 1
With B8, the binding result in series [1] is on record as “binds”.

B9: O6-CMG 23-mer duplex (dsDNA)
DNA 1: GAACTGCAGCTCCGTGCTGGCCC
DNA 2: GGGCCAGCACGGAGCTGCAGTTC
modifications: O6-carboxymethylguanine at G6 of strand 1
In the case of B9, the binding result in series [1] is reported as “binds”.

B10: O6-HOEtG 23-mer duplex (dsDNA)
DNA 1: GAACTGCAGCTCCGTGCTGGCCC
DNA 2: GGGCCAGCACGGAGCTGCAGTTC
modifications: O6-hydroxyethylguanine at G6 of strand 1
Consider B10, for which the binding result in series [1] is “binds”.
